# B1: BAR (bialaphos resistance; phosphinothricin acetyltransferase) from Streptomyces hygroscopicus (enzyme, UniProt P16426 1-183, looked up)
# chain: MSPERRPADIRRATEADMPAVCTIVNHYIETSTVNFRTEPQEPQEWTDDLVRLRERYPWLVAEVDGEVAGIAYAGPWKARNAYDWTAESTVYVSPRHQRTGLGSTLYTHLLKSLEAQGFKSVVAVIGLPNDPSVRMHEALGYAPRGMLRAAGFKHGNWHDVGFWQLDFSLPVPPRPVLPVTEI
# Biological target: the molecule itself
# Test: crystal structure
protein,measurement,value
B1,stoichiometry N,2

# — publication doi:10.1101/122184 (bioRxiv, 2017)
